Assay results taken from patent US6884600.
Each block holds one substance with its values, some of them ahead of it.

Key:
[1] = target: PP1GL, glycogen-associated form of PP1 in rat hepatic glycogen-protein particles (rat); test: cell-based or functional assay
[2] = target: myosin from chicken gizzard, dephosphorylated form (chicken) (UniProt P10587); test: co-sedimentation, 30 nM PP1M with 1 µM myosin
[3] = target: myosin from chicken gizzard, dephosphorylated form (chicken) (UniProt P10587); test: co-sedimentation with M21 in excess (10-50 µM M21, 1 µM myosin), Coomassie-stained gel

Chain of myosin from chicken gizzard, dephosphorylated form (chicken) (P10587 2-1979, chain 1 of 3): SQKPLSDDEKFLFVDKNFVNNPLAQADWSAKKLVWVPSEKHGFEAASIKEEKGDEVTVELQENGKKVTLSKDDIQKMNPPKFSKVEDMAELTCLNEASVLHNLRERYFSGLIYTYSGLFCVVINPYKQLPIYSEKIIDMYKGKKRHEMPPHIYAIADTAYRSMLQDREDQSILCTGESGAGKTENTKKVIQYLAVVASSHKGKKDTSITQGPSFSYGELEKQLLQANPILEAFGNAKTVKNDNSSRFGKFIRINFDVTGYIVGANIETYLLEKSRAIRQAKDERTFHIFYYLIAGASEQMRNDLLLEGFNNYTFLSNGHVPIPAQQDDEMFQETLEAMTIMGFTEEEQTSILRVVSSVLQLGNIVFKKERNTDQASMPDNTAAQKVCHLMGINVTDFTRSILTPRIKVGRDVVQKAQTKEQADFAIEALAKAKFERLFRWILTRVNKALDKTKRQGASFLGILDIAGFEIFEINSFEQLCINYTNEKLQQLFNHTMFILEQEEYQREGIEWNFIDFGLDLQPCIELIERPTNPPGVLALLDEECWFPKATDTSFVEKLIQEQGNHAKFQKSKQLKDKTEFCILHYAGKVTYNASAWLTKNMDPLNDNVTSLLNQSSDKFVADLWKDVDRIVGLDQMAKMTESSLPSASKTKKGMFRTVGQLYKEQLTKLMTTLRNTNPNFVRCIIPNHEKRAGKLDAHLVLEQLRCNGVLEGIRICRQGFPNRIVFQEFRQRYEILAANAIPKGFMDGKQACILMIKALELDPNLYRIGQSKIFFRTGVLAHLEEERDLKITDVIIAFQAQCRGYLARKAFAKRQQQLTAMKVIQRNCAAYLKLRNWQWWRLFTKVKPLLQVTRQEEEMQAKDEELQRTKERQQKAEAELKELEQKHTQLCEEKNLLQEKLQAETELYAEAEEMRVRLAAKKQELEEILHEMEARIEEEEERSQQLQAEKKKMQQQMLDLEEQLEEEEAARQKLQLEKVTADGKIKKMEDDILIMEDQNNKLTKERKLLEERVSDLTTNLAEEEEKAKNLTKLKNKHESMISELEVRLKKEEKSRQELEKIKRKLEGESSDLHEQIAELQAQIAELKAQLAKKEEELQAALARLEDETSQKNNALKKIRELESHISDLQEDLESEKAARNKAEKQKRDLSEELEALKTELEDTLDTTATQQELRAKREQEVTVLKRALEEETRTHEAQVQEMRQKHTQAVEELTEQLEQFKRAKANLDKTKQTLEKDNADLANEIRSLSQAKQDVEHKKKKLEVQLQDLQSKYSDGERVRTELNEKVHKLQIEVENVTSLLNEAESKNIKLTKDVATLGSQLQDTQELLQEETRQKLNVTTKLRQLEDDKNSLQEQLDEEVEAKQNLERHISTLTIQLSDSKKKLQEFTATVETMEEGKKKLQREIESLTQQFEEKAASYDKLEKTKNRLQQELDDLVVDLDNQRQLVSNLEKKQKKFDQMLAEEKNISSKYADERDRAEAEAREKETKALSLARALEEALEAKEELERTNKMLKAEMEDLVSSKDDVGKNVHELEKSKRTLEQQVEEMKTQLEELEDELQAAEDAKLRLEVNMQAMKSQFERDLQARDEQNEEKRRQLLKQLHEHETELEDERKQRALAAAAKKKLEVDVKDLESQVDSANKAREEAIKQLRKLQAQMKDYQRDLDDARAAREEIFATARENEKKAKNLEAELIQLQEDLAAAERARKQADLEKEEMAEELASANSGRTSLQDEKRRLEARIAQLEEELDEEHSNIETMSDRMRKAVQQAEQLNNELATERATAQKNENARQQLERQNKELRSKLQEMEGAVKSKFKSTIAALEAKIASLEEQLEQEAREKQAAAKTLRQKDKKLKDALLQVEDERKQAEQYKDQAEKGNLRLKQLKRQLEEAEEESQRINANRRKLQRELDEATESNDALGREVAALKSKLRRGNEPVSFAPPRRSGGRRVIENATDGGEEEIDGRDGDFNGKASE
Chain of myosin from chicken gizzard, dephosphorylated form (chicken) (P02612 2-172, chain 2 of 3, further chain): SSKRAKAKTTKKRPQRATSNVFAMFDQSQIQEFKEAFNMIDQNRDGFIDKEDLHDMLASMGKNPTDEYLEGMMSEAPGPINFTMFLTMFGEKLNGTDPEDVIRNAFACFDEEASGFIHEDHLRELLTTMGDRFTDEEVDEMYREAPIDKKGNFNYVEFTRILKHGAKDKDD
Chain of myosin from chicken gizzard, dephosphorylated form (chicken) (P02607 2-151, chain 3 of 3, further chain): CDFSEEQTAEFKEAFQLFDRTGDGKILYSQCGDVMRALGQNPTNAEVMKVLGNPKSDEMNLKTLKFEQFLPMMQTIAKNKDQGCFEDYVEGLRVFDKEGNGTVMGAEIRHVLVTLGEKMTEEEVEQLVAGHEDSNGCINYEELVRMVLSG
Chain of PP1M, myosin-associated form of PP1 from chicken gizzard (P62207 2-327): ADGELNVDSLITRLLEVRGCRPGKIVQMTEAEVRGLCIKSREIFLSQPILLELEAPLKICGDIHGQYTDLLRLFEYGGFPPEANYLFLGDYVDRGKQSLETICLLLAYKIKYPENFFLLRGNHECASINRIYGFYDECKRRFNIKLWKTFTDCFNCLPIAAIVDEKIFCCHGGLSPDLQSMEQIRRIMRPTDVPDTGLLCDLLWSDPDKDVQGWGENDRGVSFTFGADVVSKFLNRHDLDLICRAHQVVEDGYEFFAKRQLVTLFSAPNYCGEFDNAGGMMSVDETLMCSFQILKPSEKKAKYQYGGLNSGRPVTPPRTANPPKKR
Chain of PP1M, myosin-associated form of PP1 from chicken gizzard (chain): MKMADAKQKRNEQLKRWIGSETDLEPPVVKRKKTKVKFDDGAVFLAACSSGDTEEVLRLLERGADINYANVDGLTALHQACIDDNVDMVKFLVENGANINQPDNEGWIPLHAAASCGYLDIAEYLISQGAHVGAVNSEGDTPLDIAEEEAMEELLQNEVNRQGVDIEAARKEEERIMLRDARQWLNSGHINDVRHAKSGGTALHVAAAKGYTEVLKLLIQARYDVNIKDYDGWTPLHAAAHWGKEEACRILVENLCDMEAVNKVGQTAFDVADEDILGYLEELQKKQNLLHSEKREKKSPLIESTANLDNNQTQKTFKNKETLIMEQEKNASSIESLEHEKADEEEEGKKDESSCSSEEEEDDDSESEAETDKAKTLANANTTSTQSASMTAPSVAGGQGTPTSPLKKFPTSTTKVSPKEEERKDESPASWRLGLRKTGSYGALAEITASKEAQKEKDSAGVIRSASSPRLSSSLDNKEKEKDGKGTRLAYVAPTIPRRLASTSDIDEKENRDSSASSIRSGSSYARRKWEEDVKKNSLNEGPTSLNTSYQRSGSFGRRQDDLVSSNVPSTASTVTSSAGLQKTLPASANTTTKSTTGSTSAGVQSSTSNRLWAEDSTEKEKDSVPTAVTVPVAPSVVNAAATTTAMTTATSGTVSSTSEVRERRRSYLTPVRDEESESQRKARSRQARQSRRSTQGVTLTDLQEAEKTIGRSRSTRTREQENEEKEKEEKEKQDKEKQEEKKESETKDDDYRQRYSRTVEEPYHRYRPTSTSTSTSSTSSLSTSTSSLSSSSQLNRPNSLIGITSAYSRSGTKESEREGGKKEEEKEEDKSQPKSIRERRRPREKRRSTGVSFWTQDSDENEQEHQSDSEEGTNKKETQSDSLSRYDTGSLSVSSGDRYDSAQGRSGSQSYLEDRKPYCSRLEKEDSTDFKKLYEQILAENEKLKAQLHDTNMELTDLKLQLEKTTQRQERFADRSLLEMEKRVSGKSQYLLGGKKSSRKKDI

effectiveness of disruption of the PP1-GL complex relative to wild type GM[63-75] [1]: 100 fold
Substance: GM[G63-N75] variant with Val 66 changed to Ala (peptide)

percent of myosin P-light chain phosphatase recovered in the myosin pellet [2]: 85%
Substance: PP1M, myosin-associated form of PP1 from chicken gizzard (from UniProt P62207 2-327) (enzyme)

moles of M21 subunit bound to each myosin dimer (mol/mol myosin dimer) [3]: > 20
Substance: M21 subunit of chicken gizzard PP1M, full length (M1-K186)
